Measured values reported in US20040166109A1 (AVENTIS PHARMA S A, published 2004).

B2: LexA fusion of the PTB1 domain of the human FE65 protein (amino acids 395 to 543), expressed from pLex-FE65PTB1 (other)
chain: PPRNTNPGIKCFAVRSLGWVEMTEEELAPGRSSVAVNNCIRQLSYHKNNLHDPMSGGWGEGKDLLLQLEDETLKLVEPQSQALLHAQPIISIRVWGVGRDSGRDFAYVARDKLTQMLKCHVFRCEAPAKNIATSLHEICSKIMAERRNA
notes: Two-hybrid bait expressed in yeast strain L40; PTB1 fragment cloned between XmaI and SalI downstream of LexA; also called PTB1 domain of FE65; not shown: LexA protein encoded by vector pLex9 (pBTM116); N-terminal fusion partner

Columns and labels:
Assay in all cases: yeast two-hybrid (LexA bait, GAL4 AD prey), beta-galactosidase filter assay
[1] = molecular target: B2
[2] = molecular target: T1, GAL4 transactivating domain fusion of the central region of human hnRNPL (amino acids 116 to 464), brain … (human, UniProt P14866 147-495, limits assumed)
T1 construct: Two-hybrid prey isolated in the screen; also called central portion of hnRNPL
T1 sequence: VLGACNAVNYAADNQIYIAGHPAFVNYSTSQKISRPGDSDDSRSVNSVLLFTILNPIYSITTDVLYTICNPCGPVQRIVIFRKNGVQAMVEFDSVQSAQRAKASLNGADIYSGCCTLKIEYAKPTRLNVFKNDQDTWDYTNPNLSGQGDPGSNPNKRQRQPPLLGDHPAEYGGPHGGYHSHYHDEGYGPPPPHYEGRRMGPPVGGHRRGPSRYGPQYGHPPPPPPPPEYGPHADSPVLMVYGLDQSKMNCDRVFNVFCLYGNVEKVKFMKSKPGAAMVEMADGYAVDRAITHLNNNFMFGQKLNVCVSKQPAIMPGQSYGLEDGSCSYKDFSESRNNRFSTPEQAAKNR

[3] = molecular target: T2, GAL4 transactivating domain fusion of the FEBP1 (FE65 Binding PTB1 domain protein) fragment of 337 amino … (human, UniProt Q9UH62 44-379, limits assumed)
T2 construct: Two-hybrid prey isolated from a human brain cDNA library; a fragment of FEBP1, limits on the whole protein not known; also called fragment of the FEBP1 protein
T2 sequence: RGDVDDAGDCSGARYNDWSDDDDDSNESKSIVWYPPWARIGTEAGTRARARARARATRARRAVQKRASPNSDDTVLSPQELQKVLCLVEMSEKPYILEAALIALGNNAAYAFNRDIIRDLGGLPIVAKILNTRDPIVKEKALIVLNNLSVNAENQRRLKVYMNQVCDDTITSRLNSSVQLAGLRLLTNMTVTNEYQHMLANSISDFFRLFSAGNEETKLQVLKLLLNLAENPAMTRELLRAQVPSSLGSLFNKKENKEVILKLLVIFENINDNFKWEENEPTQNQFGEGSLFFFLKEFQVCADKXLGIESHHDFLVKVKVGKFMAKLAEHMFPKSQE

B1: GAL4 transactivating domain fusion of the cytoplasmic domain of the APP protein, expressed from pGAD-App (other, UniProt P05067 723-770, looked up, not shown: large carriers)
chain: LKKKQYTSIHHGVVEVDAAVTPEERHLSKMQQNGYENPTYKFFEQMQN
notes: domain: cytoplasmic domain; Control prey; also called C-terminal domain of the APP
binding result [1]: no binding

B2
binding result [2]: binds | binding result [3]: binds
